{"source": "paper PMC5500003", "about": "“RNA stores tau reversibly in complex coacervates”", "molecular_target": "tau 4R2N (Homo sapiens, UniProt P10636-8 1-441)", "sequence (P10636 other isoform, or with tags, fused parts or gaps)": "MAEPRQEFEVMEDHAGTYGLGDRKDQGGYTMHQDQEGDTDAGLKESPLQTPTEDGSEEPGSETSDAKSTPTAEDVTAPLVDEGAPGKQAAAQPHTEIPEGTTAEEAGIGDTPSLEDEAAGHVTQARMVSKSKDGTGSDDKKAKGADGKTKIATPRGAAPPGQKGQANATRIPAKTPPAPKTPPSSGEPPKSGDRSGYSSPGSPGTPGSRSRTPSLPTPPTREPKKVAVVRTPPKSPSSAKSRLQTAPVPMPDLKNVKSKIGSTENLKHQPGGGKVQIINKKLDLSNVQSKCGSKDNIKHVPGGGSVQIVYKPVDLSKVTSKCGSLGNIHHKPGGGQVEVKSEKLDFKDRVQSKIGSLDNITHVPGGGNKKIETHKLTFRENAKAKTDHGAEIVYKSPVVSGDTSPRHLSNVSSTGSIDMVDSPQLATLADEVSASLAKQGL", "test": "EMSA; Hill coefficient 2.6; EMSA: 100 mM sodium acetate pH 7.0, 0.5 mM EDTA, 0.5 mM MgCl2, 0.01% IGEPAL CA-630, RNase inhibitor, 37 C 10 min, TBE 8% gel; ITC: 20 mM ammonium acetate pH 7", "conditions": "protein: recombinant; chain copies: 2; label: 3' biotin kit RNA"}
{"binder": "CCUGGUUUUUAAGGAGUGUCGCCAGAGUGCCGCGAAUGAAAAA (ssRNA)", "note": "[RNA43]", "values": [{"measurement": "Kd", "result": "832 ± 94", "unit": "nM"}]}
